Data on one molecule can be found in patent US20190216897A1.

This test addresses IL-18 (human) (UniProt Q14116). The test can be described thus: cell-based or functional assay.

B1: neutralizing anti-IL-18 mAb (125-2H; MLB) (antibody, from another filing, V domains shown)
VH: EIQLQQSGPELVKPGASVKVSCKASGYSFTDYFIYWVKQSHGKSLEWIGDIDPYNGDTSYNQKFRDKATLTVDQSSTTAFMHLNSLTSEDSAVYFCARGLRFWGQGTLVTVSA
VL: DIQMTQSPSSLSASLGERVSLTCRASQDIGSKLYWLQQEPDGTFKRLIYATSSLDSGVPKRFSGSRSGSDYSLTISSLESEDFVDYYCLQYASSPYTFGGGTKLAIKR
For B1, the decrease in proliferation of CD8+ T cells primed with CD5+ DCs (CFSE dilution) turned out to be 40%.
